Laboratory results reported in the supplement of paper PMC11246515.
± gives the standard deviation of the averaged measurements.

Assay: total protein half-life in vivo (active degradation + dilution); higher = more stable protein
[1] = E. coli NCM3722 delta-clpP delta-lon delta-hslV, growth: N-lim chemostat, doubling time 6 h
[2] = E. coli NCM3722 delta-clpP, growth: N-lim chemostat, doubling time 6 h
[3] = E. coli NCM3722 delta-hslV, growth: N-lim chemostat, doubling time 6 h
[4] = wild type E. coli NCM3722, growth: C-lim chemostat, doubling time 3 h
[5] = wild type E. coli NCM3722, growth: C-lim chemostat, doubling time 12 h
[6] = wild type E. coli NCM3722, growth: N-lim chemostat, doubling time 6 h
[7] = wild type E. coli NCM3722, growth: P-lim chemostat, doubling time 6 h
[8] = wild type E. coli NCM3722, growth: P-lim chemostat, doubling time 12 h
[9] = E. coli NCM3722 delta-lon, growth: N-lim chemostat, doubling time 6 h
[10] = E. coli NCM3722 delta-smpB, growth: N-lim chemostat, doubling time 6 h
[11] = wild type E. coli NCM3722, growth: C-lim chemostat, doubling time 6 h
[12] = wild type E. coli NCM3722, growth: N-lim chemostat, doubling time 12 h

Sequence | total protein half-life in vivo [1] [h] | total protein half-life in vivo [2] [h] | total protein half-life in vivo [3] [h] | total protein half-life in vivo [4] [h] | total protein half-life in vivo [5] [h] | total protein half-life in vivo [6] [h] | total protein half-life in vivo [7] [h] | total protein half-life in vivo [8] [h] | total protein half-life in vivo [9] [h] | total protein half-life in vivo [10] [h] | total protein half-life in vivo [11] [h] | total protein half-life in vivo [12] [h]
MTKKKAHKPGSATIALNKRARHEYFIEEEFEAGLALQGWEVKSLRAGKANISDSYVLLRDGEAFLFGANITPMAVASTHVVCDPTRTRKLLLNQRELDSLYGRVNREGYTVVALSLYWKNAWCKVKIGVAKGKKQHDKRSDIKEREWQVDKARIMKNAHR [P0A832] | 6.34 ± 0.4 | 6.17 ± 1.2 | 6.55 ± 0.43 | 3.07 ± 0.46 | 13.1 ± 0.6 | 5.94 ± 0.25 | 5.73 ± 0.2 | 11.7 ± 0.31 |  |  |  | 
MTKKLHIKTWGCQMNEYDSSKMADLLDATHGYQLTDVAEEADVLLLNTCSIREKAQEKVFHQLGRWKLLKEKNPDLIIGVGGCVASQEGEHIRQRAHYVDIIFGPQTLHRLPEMINSVRGDRSPVVDISFPEIEKFDRLPEPRAEGPTAFVSIMEGCNKYCTYCVVPYTRGEEVSRPSDDILFEIAQLAAQGVREVNLLGQNVNAWRGENYDGTTGSFADLLRLVAAIDGIDRIRFTTSHPIEFTDDIIEVYRDTPELVSFLHLPVQSGSDRILNLMGRTHTALEYKAIIRKLRAARPDIQISSDFIVGFPGETTEDFEKTMKLIADVNFDMSYSFIFSARPGTPAADMVDDVPEEEKKQRLYILQERINQQAMAWSRRMLGTTQRILVEGTSRKSIMELSGRTENNRVVNFEGTPDMIGKFVDVEITDVYPNSLRGKVVRTEDEMGLRVAETPESVIARTRKENDLGVGYYQP [P0AEI1] | 4.82 ± 0.13 | 2.04 ± 0.24 | 1.57 ± 0.14 | 1.5 ± 0.018 | 2.62 ± 0.22 | 1.632 ± 0.015 | 1.97 ± 0.35 | 3.75 ± 0.39 | 2.12 ± 0.29 | 1.54 ± 0.098 | 2.18 ± 0.19 | 2.12 ± 0.027
MTKLQLKYRELKIISVIAASENISHAATVLGIAQANVSKYLADFESKVGLKVFDRTTRQLMLTPFGTALLPYINDMLDRNEQLNNFIADYKHEKRGRVTIYAPTGIITYLSKHVIDKIKDIGDITLSLKTCNLERNAFYEGVEFPDDCDVLISYAPPKDESLVASFITQYAVTAYASQRYLEKHPISRPDELEHHSCILIDSMMIDDANIWRFNVAGSKEVRDYRVKGNYVCDNTQSALELARNHLGIVFAPDKSVQSDLQDGTLVPCFQQPYEWWLDLVAIFRKREYQPWRVQYVLDEMLREIRHQLAQSQQLRPEQAAESED | 5.588 ± 0.0059 | 5.07 ± 0.4 | 4.7 ± 0.45 | 2.74 ± 0.18 | 10.9 ± 2 | 4.15 ± 0.18 | 6.03 ± 0.88 | 10.1 ± 0.15 | 4.98 ± 0.36 | 4.54 ± 0.47 |  | 7.04 ± 0.43
MTKMSRYALITALAMFLAGCVGQREPAPVEEVKPAPEQPAEPQQPVPTVPSVPTIPQQPGPIEHEDQTAPPAPHIRHYDWNGAMQPMVSKMLGADGVTAGSVLLVDSVNNRTNGSLNAAEATETLRNALANNGKFTLVSAQQLSMAKQQLGLSPQDSLGTRSKAIGIARNVGAHYVLYSSASGNVNAPTLQMQLMLVQTGEIIWSGKGAVSQQ [P0AB38] | 5.22 ± 0.26 | 5.7 ± 0.39 | 6.59 ± 0.23 | 3.38 ± 0.095 | 10.9 ± 0.91 | 6.102 ± 0.019 | 5.94 ± 0.24 | 11.7 ± 1.2 | 6.43 ± 0.46 | 6.495 ± 0.062 | 6.19 ± 0.46 | 12.3 ± 0.41
MTKSELIERLATQQSHIPAKTVEDAVKEMLEHMASTLAQGERIEIRGFGSFSLHYRAPRTGRNPKTGDKVELEGKYVPHFKPGKELRDRANIYG [P0A6Y1] | 6.88 ± 0.81 | 5.26 ± 0.3 | 5.99 ± 1.1 | 2.47 ± 0.093 | 6.05 ± 0.37 | 4.71 ± 0.18 | 2.62 ± 0.24 | 5.3658 ± 0.0042 | 6.3 ± 0.4 | 4.64 ± 0.21 | 4.3 ± 0.44 | 8.31 ± 2.4
MTKVLLSHPPRPASHNSSRAMVWVRKNLFSSWSNSLLTIGCIWLMWELIPPLLNWAFLQANWVGSTRADCTKAGACWVFIHERFGQFMYGLYPHDQRWRINLALLIGLVSIAPMFWKILPHRGRYIAAWAVIYPLIVWWLMYGGFFALERVETRQWGGLTLTLIIASVGIAGALPWGILLALGRRSHMPIVRILSVIFIEFWRGVPLITVLFMSSVMLPLFMAEGTSIDKLIRALVGVILFQSAYVAEVVRGGLQALPKGQYEAAESLALGYWKTQGLVILPQALKLVIPGLVNTIIALFKDTSLVIIIGLFDLFSSVQQATVDPAWLGMSTEGYVFAALIYWIFCFSMSRYSQYLEKRFNTGRTPH |  |  |  |  |  | 4.17 |  |  |  |  |  | 
MTLEWWFAYLLTSIILSLSPGSGAINTMTTSLNHGYRGAVASIAGLQTGLAIHIVLVGVGLGTLFSRSVIAFEVLKWAGAAYLIWLGIQQWRAAGAIDLKSLASTQSRRHLFQRAVFVNLTNPKSIVFLAALFPQFIMPQQPQLMQYIVLGVTTIVVDIIVMIGYATLAQRIALWIKGPKQMKALNKIFGSLFMLVGALLASARHA [P0AG34] |  | 2.02 | 1.51 | 0.913 | 2.28 | 2.62 |  | 3.7 |  | 1.73 ± 0.21 | 1.47 | 
MTLFTTLLVLIFERLFKLGEHWQLDHRLEAFFRRVKHFSLGRTLGMTIIAMGVTFLLLRALQGVLFNVPTLLVWLLIGLLCIGAGKVRLHYHAYLTAASRNDSHARATMAGELTMIHGVPAGCDEREYLRELQNALLWINFRFYLAPLFWLIVGGTWGPVTLMGYAFLRAWQYWLARYQTPHHRLQSGIDAVLHVLDWVPVRLAGVVYALIGHGEKALPAWFASLGDFHTSQYQVLTRLAQFSLAREPHVDKVETPKAAVSMAKKTSFVVVVVIALLTIYGALV [P0AE14] | 6.33 ± 0.16 | 6.29 |  | 3.246 ± 0.031 | 13.1 ± 3.9 | 6.63 ± 0.9 |  |  | 5.3 ± 0.39 | 6.02 ± 0.49 | 5.626 ± 0.0074 | 14 ± 2.6
